Data on 1 molecule can be found in patent US20030003482A1 (published 2003).

The assay concerns the target T1, Human MRP14 (Homo sapiens, UniProt P06702 1-114, limits assumed).
T1 sequence: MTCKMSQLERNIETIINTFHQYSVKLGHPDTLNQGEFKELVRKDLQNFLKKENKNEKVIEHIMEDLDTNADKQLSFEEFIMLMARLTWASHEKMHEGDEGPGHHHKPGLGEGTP
Kind of assay: statement within the sandwich ELISA example (Example 5). The protocol: In order to determine the amount of MRP8/MRP14 polypeptide in various wound fluids, wound fluid samples from patients suffering from chronic diabetic wound were collected, venous ulcers as well as wound fluids from wounds of healthy persons. Wound fluids were isolated as described in Example 2 by means of drainage. For the determination of MRP8/MRP14 content, Maxi-Sorb Immunoplates (96-well, Nunc, Wiesbaden, Germany) were coated with polyclonal rabbit antisera against MRP14 by incubating each well overnight at 4° C. with 50 μl of coating solution (anti-MRP14 antibody, 2 μg/ml, in 0.1 M NaHCO3, pH 9.5). […] After removal of the blocking reagent, 50 μl of diluted wound fluid samples (buffer A: PBS containing 0.1% Tween 20) were added and allowed to react with the immobilized capture antibody for 1 h at 37° C. and then washed (3×) with buffer A. Bound antigen was detected by incubation (1 h, 37° C.) of each well with 50 μl of a biotinylated monoclonal antibody against MRP14 (clone S36.48, Dianova, 125 ng/ml antibody in buffer A). […] MRP8 and MRP14 spontaneously form noncovalently associated complexes to a quantitative extent which are detected by the ELISA system. […] The total polypeptide content per probe was determined using the BCA assay.
On the technique in general: In an ELISA, binding on a coated surface is turned into a signal by an enzyme label.

B1: Human MRP8 (other)
chain: MLTELEKALNSIIDVYHKYSLIKGNFHAVYRDDLKKLLETECPQYIRKKGADVWFKELDINTDGAVNFQEFLILVIKMGVAAHKKSHEESHKE
notes: Natural protein in human wound fluid and wound biopsy tissue (Western blot); also called calgranulin A
On to B1, for which the binding result is “binds”.
